Source: patent US9464326B2, “Total and phosphorylated IL-1 receptor-associated kinase-1 and IL-1 receptor-associated kinase-4 as a biomarker for cancer progression and chemotherapy resistance” (University of Maryland, Baltimore, priority 2012, dated 2016)

Legend:
Format in all cases: cell-based, human
HH = assay: Proliferation (3H-thymidine) of HH; conditions: 3H-thymidine uptake, 72 h
From the text: (§1) CCRF-CEM, CEM/C1, CEM/C2, CEM-C7, Jurkat, Loucy, Molt-4, HSB-2, SUP-T1, Hut 78, HH, Hut 102, MO, and H9 T-leukemia and T-lymphoma cell lines were purchased from the American Type Culture Collection (Manassas, Va., USA). All of the cell lines were initially expanded and cryopreserved within one month of receipt. Cells were typically used for 6 months at which time a fresh vial of cryopreserved cells was used. Total T cells from healthy donors were isolated via negative selection followed by positive selection using a CD3+ selection kit (Invitrogen, Carlsbad, Calif.). T cells were isolated from patients with T-ALL bone marrow or peripheral blood samples containing more than 70% leukemia cells using a CD2+ isolation kit (STEMCELL Technologies, Vancouver, Canada). All tissues were collected under institutional IRB-approved protocols and all participants gave written informed assent/consent. For in vitro experiments, T-ALL cells were cultured in AIM-V medium supplemented with 20% human AB serum in the presence of recombinant human stem cell factor (50 ng/mL; Amgen, Thousand Oaks, Calif.), insulin (20 nM; Sigma-Aldrich, St Louis, Mo., USA) and IL-7 (50 ng/mL; R&D Systems, Minneapolis, Minn., USA). […]
(§2) Cells were cultured in a 96-well plate (Corning Costar, Corning, N.Y., USA) with various concentrations of TLR ligands 1-9, starting at 10 μg/ml, in a final volume of 200 ul. […] After this time point, cells were harvested with a Packard Filter-Mate-96 cell harvester (Perkin Elmer, Waltham, Mass., USA) and counted on Packard Top Count-NXT (Perkin Elmer, Waltham, Mass., USA). Results were expressed as average counts per minute (cpm). […] Forty-eight hours later, proliferation (±SD) was determined by ^3H-thymidine incorporation. Alternatively, apoptosis was measured by flow cytometry after staining cells with Annexin-V (BD Pharmingen, San Diego, Calif., USA) and propidium iodide (Sigma). Cell number was counted under microscopy by staining cells with trypan blue. […]

Molt-4 = assay: Proliferation (3H-thymidine) of Molt-4; conditions: 3H-thymidine uptake, 72 h
From the text: as §1, §2

CEM-C2 = assay: Proliferation (3H-thymidine) of CEM-C2; conditions: 3H-thymidine uptake, 72 h
From the text: (§3) CCRF-CEM, CEM/C1, CEM/C2, CEM-C7, Jurkat, Loucy, Molt-4, HSB-2, SUP-T1, Hut 78, HH, Hut 102, MO, and H9 T-leukemia and T-lymphoma cell lines were purchased from the American Type Culture Collection (Manassas, Va., USA). All of the cell lines were initially expanded and cryopreserved within one month of receipt. Cells were typically used for 6 months at which time a fresh vial of cryopreserved cells was used. Total T cells from healthy donors were isolated via negative selection followed by positive selection using a CD3+ selection kit (Invitrogen, Carlsbad, Calif.). T cells were isolated from patients with T-ALL bone marrow or peripheral blood samples containing more than 70% leukemia cells using a CD2+ isolation kit (STEMCELL Technologies, Vancouver, Canada). All tissues were collected under institutional IRB-approved protocols and all participants gave written informed assent/consent. For in vitro experiments, T-ALL cells were cultured in AIM-V medium supplemented with 20% human AB serum in the presence of recombinant human stem cell factor (50 ng/mL; Amgen, Thousand Oaks, Calif.), insulin (20 nM; Sigma-Aldrich, St Louis, Mo., USA) and IL-7 (50 ng/mL; R&D Systems, Minneapolis, Minn., USA). In other experiments, protein lysate was collected using the Full Moon Biosystems (Sunnyvale, Calif., USA) buffer prior to protein examination by western blot or protein array.
(§4) Cells were cultured in a 96-well plate (Corning Costar, Corning, N.Y., USA) with various concentrations of TLR ligands 1-9, starting at 10 μg/ml, in a final volume of 200 ul. TLR ligands were diluted 2-fold. Cell lines (25-40×10^3/well) were cultured for 54 hours, whereas fresh patient-derived T-ALL cells (200×10^3/well) were cultured for 30 hours prior to adding [^3H]-thymidine for 18 hours. After this time point, cells were harvested with a Packard Filter-Mate-96 cell harvester (Perkin Elmer, Waltham, Mass., USA) and counted on Packard Top Count-NXT (Perkin Elmer, Waltham, Mass., USA). Results were expressed as average counts per minute (cpm). In some experiments CCRF-CEM cells were pre-treated with TLR1-TLR2 ligand (Pam3CysK4; 2.5 ug/ml) for 48 hrs, washed, and then cultured in the presence of varying concentrations of FBS. Forty-eight hours later, proliferation (±SD) was determined by ^3H-thymidine incorporation. Alternatively, apoptosis was measured by flow cytometry after staining cells with Annexin-V (BD Pharmingen, San Diego, Calif., USA) and propidium iodide (Sigma). Cell number was counted under microscopy by staining cells with trypan blue. […]

[1] = system: Primary T-cells Activated; assay: Proliferation (3H-thymidine) of activated primary T-cells; conditions: Primary T-cells, Activated
From the text: as §3
(§5) Cells were cultured in a 96-well plate (Corning Costar, Corning, N.Y., USA) with various concentrations of TLR ligands 1-9, starting at 10 μg/ml, in a final volume of 200 ul. TLR ligands were diluted 2-fold. Cell lines (25-40×10^3/well) were cultured for 54 hours, whereas fresh patient-derived T-ALL cells (200×10^3/well) were cultured for 30 hours prior to adding [^3H]-thymidine for 18 hours. After this time point, cells were harvested with a Packard Filter-Mate-96 cell harvester (Perkin Elmer, Waltham, Mass., USA) and counted on Packard Top Count-NXT (Perkin Elmer, Waltham, Mass., USA). Results were expressed as average counts per minute (cpm). In some experiments CCRF-CEM cells were pre-treated with TLR1-TLR2 ligand (Pam3CysK4; 2.5 ug/ml) for 48 hrs, washed, and then cultured in the presence of varying concentrations of FBS. Forty-eight hours later, proliferation (±SD) was determined by ^3H-thymidine incorporation. Alternatively, apoptosis was measured by flow cytometry after staining cells with Annexin-V (BD Pharmingen, San Diego, Calif., USA) and propidium iodide (Sigma). Cell number was counted under microscopy by staining cells with trypan blue.
(§6) The following TLR ligands were purchased from Invivogen (San Diego, Calif., USA): tripalmitoyl-S-(bis(palmitoyloxy)propyl)-Cys-Ser-(Lys)3-Lys (TLR1-2); Poly I:C (TLR3); ultrapure S. Minnesota Lipopolysaccharide (TLR4); S. typhimurium flagellin (TLR5); FSL-1 (TLR2/6); Imiquimod (TLR7); ssRNA40/Lyovec (TLR8); CpG-ODN 2006 (TLR9).

Hut 102 = assay: Proliferation (3H-thymidine) of Hut 102; conditions: 3H-thymidine uptake, 72 h
From the text: as §1, §2

G361 melanoma cells = assay: Western blot of IRAK phosphorylation in G361; conditions: 48 hours
Experimental: (§7) FIG. 22. Effects of TLR stimulation and cytokines on IRAK phosphorylation in melanoma cells. (A) A375 cells were cultured in the presence of anti-IL-18, anti-CXCL-1, (R&D Systems), anti-IL-1 (BioLegend), or mouse IgG (Sigma-Aldrich) all at 10 μg/ml. Forty-eight hours later the levels of the indicated proteins were determined by western blot. (B) A375 cells, which express p-IRAK-1 and p-IRAK-4, and G361 melanoma cells, which express very low levels of p-IRAK-1 (and express TLR5) were cultured in the presence of TLR1-TLR2 agonist (Pam3CysK4; 2.5 μg/ml) or TLR5 (flagellin; 100 ng/ml; InVivogen). Forty-eight hours later total protein was collected and the levels of the indicated proteins were examined by western blot.
(§8) Total cell extracts were prepared from melanoma cells. […] Melanoma tissue arrays were purchased from US Biomax, Inc (Rockville, Md.). For immunohistochemical staining samples were stained with mouse monoclonal anti-human phosphor-IRAK.-4 antibody (Abnova; dilution, 3.5 μg/ml) or normal mouse serum. Tissue histology sections (5-μm-thick) were deparaffinized, hydrated, heated in boiling 10 mmol/L sodium citrate (pH 6.0), for antigen retrieval, for 30 min and washed in Tris buffer. Peroxide blocking was done with 3% […] in methanol at room temperature for 15 min, followed by 10% fetal bovine serum in TBS-t for 30 min at room temperature. Primary antibody incubation was done overnight at 4° C. Secondary antibody incubation with horse anti-mouse (1:200; Vector Laboratories, Burlingame, Calif.) was done for 1 hr, followed by application of diaminobenzidine chromogen for 5 min. The slides were then counterstained with hematoxylin and topped with a coverslip. IHC specimens were analyzed using “quick score” system in which the intensity of the immunohistochemical reaction was scored by multiplying the intensity 1 (weak), 2 (moderate), and 3 (strong) and the proportion of cells staining positively 0 (<10%), 1 (10-25%), 2 (26-50%), 3 (51-75%) or 4 (>75%).

Loucy = assay: Proliferation (3H-thymidine) of Loucy; conditions: 3H-thymidine uptake, 72 h
From the text: as §3, §4

MO = assay: Proliferation (3H-thymidine) of MO; conditions: 3H-thymidine uptake, 72 h
From the text: as §1, §2

Primary T-cells Non-Act = assay: Proliferation (3H-thymidine) of non-activated primary T-cells; conditions: 3H-thymidine uptake, 72 h
From the text: as §1, §2

CCRF-CEM = assay: Proliferation (3H-thymidine) of CCRF-CEM; conditions: 3H-thymidine uptake, 72 h
From the text: as §3, §5, §6

CEM-C1 = assay: Proliferation (3H-thymidine) of CEM-C1; conditions: 3H-thymidine uptake, 72 h
From the text: as §3, §4

H9 = assay: Proliferation (3H-thymidine) of H9; conditions: H9
From the text: as §3, §5, §6

Jurkat = assay: Proliferation (3H-thymidine) of Jurkat; conditions: 3H-thymidine uptake, 72 h
From the text: as §3, §4

HSB-2 = assay: Proliferation (3H-thymidine) of HSB-2
From the text: as §3, §5, §6

Hut-78 = assay: Proliferation (3H-thymidine) of Hut-78; conditions: 3H-thymidine uptake, 72 h
From the text: as §1, §2

A375 cells = assay: Western blot of IRAK phosphorylation in A375; conditions: 48 hours
Experimental: as §7, §8

SupT1 = assay: Proliferation (3H-thymidine) of SupT1; conditions: SupT1; 3H-thymidine uptake, 72 h
From the text: as §3, §5, §6

CEM-C7 = assay: Proliferation (3H-thymidine) of CEM-C7
From the text: as §3, §5, §6

[2] = Pam3CysK4 2.5 μg/ml or flagellin 100 ng/ml, FIG. 22B

B1: Flagellin: S. typhimurium flagellin, TLR5 ligand (Invivogen) (protein, UniProt P06179 2-495, looked up)
Flagellin: AQVINTNSLSLLTQNNLNKSQSALGTAIERLSSGLRINSAKDDAAGQAIANRFTANIKGLTQASRNANDGISIAQTTEGALNEINNNLQRVRELAVQSANSTNSQSDLDSIQAEITQRLNEIDRVSGQTQFNGVKVLAQDNTLTIQVGANDGETIDIDLKQINSQTLGLDTLNVQQKYKVSDTAATVTGYADTTIALDNSTFKASATGLGGTDQKIDGDLKFDDTTGKYYAKVTVTGGTGKDGYYEVSVDKTNGEVTLAGGATSPLTGGLPATATEDVKNVQVANADLTEAKAALTAAGVTGTASVVKMSYTDNNGKTIDGGLAVKVGDDYYSATQNKDGSISINTTKYTADDGTSKTALNKLGGADGKTEVVSIGGKTYAASKAEGHNFKAQPDLAEAAATTTENPLQKIDAALAQVDTLRSDLGAVQNRFNSAITNLGNTVNNLTSARSRIEDSDYATEVSNMSRAQILQQAGTSVLAQANQVPQNVLSLLR
How did the “Proliferative effects of TLR ligands” value (HH) turn out when B1 was run?
Its value is “∘”.

And the “Proliferative effects of TLR ligands” value (Molt-4)?
The value was “∘”.

And the “Proliferative effects of TLR ligands” value (CEM-C2)?
The value was “∘”.

And the “Proliferative effects of TLR ligands” value ([1]; 3H-thymidine uptake, 72 h)?
Its value is “+ (enhanced proliferation by 25% or greater)”.

What about the “TLR ligand concentration in parentheses below the symbol” value (“TLR ligand concentration” below) ([1]; no unit in table (μg/ml)) of the same molecule?
Its value is “(10)”.

And the “Proliferative effects of TLR ligands” value (Hut 102)?
The value was “∘”.

What about the “p-IRAK-1 or p-IRAK-4 expression levels” value (G361 melanoma cells; [2]) of the same molecule?
The value was “neither TLR-1-TLR2 agonist (Pam3CysK4), nor TLR5 (Flagellin) stimulation increased or induced”.

What about the “total and p-IRAK-4 levels” value (G361 melanoma cells; flagellin 100 ng/ml) of the same molecule?
Its value is “reduced”.

What about the “Proliferative effects of TLR ligands” value (Loucy) of the same molecule?
The value was “∘”.

And the “Proliferative effects of TLR ligands” value (MO)?
Its value is “∘”.

And the “Proliferative effects of TLR ligands” value (Primary T-cells Non-Act)?
The value was “∘”.

And the “Proliferative effects of TLR ligands” value (CCRF-CEM)?
Its value is “∘”.

What about the “Proliferative effects of TLR ligands” value (CEM-C1) of the same molecule?
Its value is “∘”.

What about the “Proliferative effects of TLR ligands” value (H9; 3H-thymidine uptake, 72 h) of the same molecule?
The value was “− (reduced proliferation)”.

And the “TLR ligand concentration” value (H9; no unit in table (μg/ml))?
Its value is “(10)”.

What about the “Proliferative effects of TLR ligands” value (Jurkat) of the same molecule?
The value was “∘”.

And the “Proliferative effects of TLR ligands” value (HSB-2; 3H-thymidine uptake, 72 h)?
Its value is “− (reduced proliferation)”.

What about the “TLR ligand concentration” value (HSB-2; no unit in table (μg/ml)) of the same molecule?
The value was “(10)”.

And the “Proliferative effects of TLR ligands” value (Hut-78)?
The value was “∘”.

And the “p-IRAK-1 or p-IRAK-4 expression levels” value (A375 cells; [2])?
Its value is “neither TLR-1-TLR2 agonist (Pam3CysK4), nor TLR5 (Flagellin) stimulation increased or induced”.

And the “total and p-IRAK-4 levels” value (A375 cells; flagellin 100 ng/ml)?
The value was “reduced”.

What about the “Proliferative effects of TLR ligands” value (SupT1) of the same molecule?
Its value is “∘”.

And the “Proliferative effects of TLR ligands” value (CEM-C7; 3H-thymidine uptake, 72 h)?
The value was “− (reduced proliferation)”.

What about the “TLR ligand concentration” value (CEM-C7; no unit in table (μg/ml)) of the same molecule?
The value was “(2.5)”.
